The source of these data is paper PMC8916002 (Proceedings of the National Academy of Sciences of the …, 2022).

The stoichiometry N is a count of units in the complex or per binding partner. The Kd is the equilibrium constant for the complex coming apart. Lower therefore signals tighter binding.

The subject of assay [1] is JPH1. In words: Cocrystallization of JPH1 with phospholipids. Format: binding, human. As to conditions: high ionic strength.
For assay [2], the target named is T1, JPH2 (1 to 161, 275 to 437) (human, UniProt Q9BR39-1 1-161; Q9BR39-1 275-437).
T1 chain (looked up): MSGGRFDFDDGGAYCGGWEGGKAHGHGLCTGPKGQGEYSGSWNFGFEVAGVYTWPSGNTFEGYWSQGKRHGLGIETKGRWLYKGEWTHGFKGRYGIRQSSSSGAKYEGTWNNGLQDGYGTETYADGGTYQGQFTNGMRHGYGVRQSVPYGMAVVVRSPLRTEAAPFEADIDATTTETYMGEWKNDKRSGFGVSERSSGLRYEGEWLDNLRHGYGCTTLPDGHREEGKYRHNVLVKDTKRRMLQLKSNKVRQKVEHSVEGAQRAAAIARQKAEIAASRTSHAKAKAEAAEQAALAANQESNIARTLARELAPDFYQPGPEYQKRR
In words: ITC. In general terms: Isothermal titration calorimetry measures the heat released or taken up as one component is titrated into another.

Assay [3] concerns the target T2, MBP-tagged JPH2 (1 to 161, 275 to 437) (human, UniProt Q9BR39-1 1-161; Q9BR39-1 275-437).
T2 chain (looked up): T1 chain (looked up)
In words: ITC.

In assay [4] the target is T3, JPH1 (1 to 175, 265 to 442) (human, UniProt Q9HDC5 1-175; Q9HDC5 265-442).
T3 chain (looked up): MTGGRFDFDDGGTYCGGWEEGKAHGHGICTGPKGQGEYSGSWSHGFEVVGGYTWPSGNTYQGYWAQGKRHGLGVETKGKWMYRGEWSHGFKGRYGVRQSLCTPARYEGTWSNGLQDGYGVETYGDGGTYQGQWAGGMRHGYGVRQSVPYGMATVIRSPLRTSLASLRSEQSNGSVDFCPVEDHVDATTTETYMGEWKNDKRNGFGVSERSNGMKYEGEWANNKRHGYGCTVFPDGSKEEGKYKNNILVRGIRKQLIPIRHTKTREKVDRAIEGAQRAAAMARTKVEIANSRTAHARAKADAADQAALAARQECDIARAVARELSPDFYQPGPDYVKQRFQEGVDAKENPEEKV
Nature of the assay: ITC.

In the case of `CCCCCC(=O)OC[C@H](COP(=O)(O)OC[C@H](N)C(=O)O)OC(=O)CCCCC` [6:0 PS], the “ligand electron density in JPH1 crystals” value in assay [1] (2 mM 6:0 PS, diffraction data to 1.9 Å) is recorded as “no significant difference density could be identified”; in assay [1] (2 mM 6:0 PS, diffraction data to 1.9 Å, listed as PS), “could not observe any density for a bound ligand”.

With `CCCCCCCC(=O)OC[C@H](COP(=O)(O)O[C@@H]1[C@H](O)[C@H](O)[C@@H](OP(=O)(O)O)[C@H](OP(=O)(O)O)[C@H]1O)OC(=O)CCCCCCC` [8:0 PI(4,5)P2], the “ligand electron density in JPH1 crystals” value in assay [1] (500 μM 8:0 PI(4,5)P2, diffraction data to 2.0 Å) is reported as “no significant difference density could be identified”.

For the molecule EERIFRRTGGLFGQVD (peptide, UniProt P07293 1594-1609, looked up) [CaV1.1 peptide (rabbit CaV1.1 residues 1594 to 1609)], the “stoichiometry N” value in assay [2] and in assay [4] was 1 each time. Further, the equilibrium dissociation constant (Kd) in assay [3] was 1800 nM; in assay [4], 1000 to 2000 nM.
